Assay results from patent US20200330588A1 (ICAHN SCHOOL OF MEDICINE AT MOUNT SINAI, published 2020).

Assays:
[1] = target: T1, HCMV glycoprotein gH, strain TB40/E (U373^gH cells, TB40/E-infected cells, virions) (Human cytomegalovirus strain TB40/E); test: cell-based or functional assay
[2] = target: T1, HCMV glycoprotein gH, strain TB40/E …; test: cell-based or functional assay; remark: listed apart in the source
[3] = target: HCMV glycoprotein gH, strain TR (virions) (Human cytomegalovirus strain TR); test: cell-based or functional assay
[4] = target: HCMV glycoprotein gH, strain VHL/E (virions) (Human cytomegalovirus strain VHL/E); test: cell-based or functional assay
[5] = target: HCMV glycoprotein gH, strain DAVIS (virions) (Human cytomegalovirus strain DAVIS); test: cell-based or functional assay
[6] = target: HCMV glycoprotein gH, strain AD169 (AD169IE2-YFP-infected MRC5 cells and virions) (Human cytomegalovirus strain AD169, UniProt P12824 24-743); test: cell-based or functional assay
[7] = target: T2, gH mutant 480-486 (consecutive alanine substitutions) transfected into HEK293 cells with gL (Human cytomegalovirus (consensus …)); test: flow cytometry, HEK293 cells transfected with gH alanine mutant and gL; % of gH-positive cells compared to WT
T2 construct: whole, on cells; also called 480-486 mutant; gH mutant 480-86

[8] = target: T3, gH mutant 485-492 (consecutive alanine substitutions) transfected into HEK293 cells with gL (Human cytomegalovirus (consensus …)); test: as above
T3 construct: whole, on cells; also called 485-492 mutant; gH mutant 485-92

[9] = target: T4, gH alanine mutant 480-481 transfected into HEK293 cells with gL (Human cytomegalovirus (consensus …)); test: as above
T4 construct: whole, on cells

[10] = target: T5, gH alanine mutant 482-483 transfected into HEK293 cells with gL (Human cytomegalovirus (consensus …)); test: as above
T5 construct: whole, on cells

[11] = target: T6, gH alanine mutant 484-485 transfected into HEK293 cells with gL (Human cytomegalovirus (consensus …)); test: as above
T6 construct: whole, on cells

[12] = target: T7, gH alanine mutant 486-487 transfected into HEK293 cells with gL (Human cytomegalovirus (consensus …)); test: as above
T7 construct: whole, on cells

[13] = target: T8, gH alanine mutant 488-489 transfected into HEK293 cells with gL (Human cytomegalovirus (consensus …)); test: as above
T8 construct: whole, on cells

[14] = target: T9, gH alanine mutant 490-491 transfected into HEK293 cells with gL (Human cytomegalovirus (consensus …)); test: as above
T9 construct: whole, on cells

[15] = target: gH alanine mutant 478-488 (label as in Table 6); test: as above
[16] = target: T10, cyclic gH peptides (7, 10 and 13 aa libraries) spanning gH residues 485-493 (Human cytomegalovirus, cyclized with a thioether linkage between the N' and C' termini); test: cyclic peptide microarray (PEPperCHIP), anti-mouse DyLight680 detection
T10 construct: also called region spanning residues 485-493

Row | Binder | IC50, neutralization of TB40/E FLAG-YFP infection of ARPE-19 epithelial cells (YFP read-out) [1] | IC50, neutralization of TB40/E FLAG-YFP infection of fibroblasts (FLAG-YFP read-out) [2] | IC50, strain TB40/E, epithelial cells, α-IE staining [2] | IC50, strain TB40/E, fibroblasts, plaque assay [2] | IC50, strain TB40/E, fibroblasts, α-IE staining [2] | IC50, strain TR, epithelial cells, α-IE staining [3] | IC50, strain TR, fibroblasts, plaque assay [3] | IC50, strain TR, fibroblasts, α-IE staining [3] | IC50, strain VHL/E, epithelial cells, α-IE staining [4] | IC50, strain VHL/E, fibroblasts, plaque assay [4] | IC50, strain VHL/E, fibroblasts, α-IE staining [4] | IC50, strain Davis, fibroblasts, plaque assay [5] | IC50, neutralization of AD169IE2-YFP infection of fibroblasts (IE2-YFP read-out) [6] | Avg. binding (% of mass) [7] | Avg. binding (% of mass) [8] | Avg. binding (% of mass) [9] | Avg. binding (% of mass) [10] | Avg. binding (% of mass) [11] | Avg. binding (% of mass) [12] | Avg. binding (% of mass) [13] | other results
1 | monoclonal antibody 10C10 (antibody, V domains shown, also called mAb 10C10; 10C10^647 (Alexa Fluor 647 conjugate)) VH: EVQLQQSGPELVKPGVSMRISCKASGFSFTDYTMNWVKQSHRKNLEWIGLVNPYNGGTSHNPNFKGKATLTVDKSSSTAYMELLSLTSEDSAVYYCARRGRRDYALDYWGQGTSVTVSS VL: DIVLTQSPVTLSVTPGDSVSLSCRASQSVSNNLHWYQQKSHESPRLLIKYASQSISGIPSRFRGSGSGTDFTLSIISVETEDFGMYFCQQSNIWPHTFGAGTKLELKR | 0.13 µg/mL | 0.38 µg/mL | 1.35 µg/mL | 1.28 µg/mL | 4.18 µg/mL | 0.44 µg/mL | 2.43 µg/mL | 2.34 µg/mL | 0.11 µg/mL | 0.24 µg/mL | 0.24 µg/mL | 0.37 µg/mL | 0.5 µg/mL | 3% | 2% | 70% | 91% | 3% | 2% | 98% | Avg. binding (% of mass) [14]: 72%; Avg. binding (% of mass) [15]: 100%
2 | monoclonal antibody 5C3 (antibody, V domains shown, also called mAb 5C3; 5C3^647 (Alexa Fluor 647 conjugate)) VH: QVQLQQPGAELVRPGASVKLSCKASGYTFTTYWMNWVKQRPGQGLEWIGMIDPSDSETHYNQMFKDKATLTVDTSSSTAYMQLSSLTSEDSAVYYCARGRSWFVYWGQGTLVTVSS VL: DIVLTQSPASLAVSLGQRATISCRASKSVSSSGYSYVHWYQQKPGQPPKLLIYLASNLESGVPARFSGSGSGTDFTLNIHSVEEEDAATYYCQHNRELPYTFGGGTKLEIKR | 0.04 µg/mL | 0.07 µg/mL | 0.96 µg/mL | 0.45 µg/mL | 0.88 µg/mL | 0.16 µg/mL | 2.13 µg/mL | 0.63 µg/mL | 0.11 µg/mL | 0.02 µg/mL | 0.02 µg/mL | 0.22 µg/mL | 0.24 µg/mL | 14% | 49% | 72% | 85% | 76% | 56% | 113% | fold over background [16]: ~3 fold; Avg. binding (% of mass) [14]: 92%; Avg. binding (% of mass) [15]: 100%
